The target of one assay is MMP-9 (Homo sapiens, UniProt P14780). Put plainly: SensoLyte Fluorimetric MMP-9 Activity Assay. Type of assay: biochemical. Conditions: dose response; 1 μg/ml TIMP3. The text has this:
SensoLyte Fluorimetric MMP-2 Activity Assay Kit™ (Cat#71151) and SensoLyte Fluorimetric MMP-9 Activity Assay Kit™ (Cat#71155) were purchased from AnaSpec (Fremont, Calif.) and performed per manufacturer's instructions.

Assay [1] has as its system phospho-AKT(Ser473) in SH-SY5Y cells. Nature of the assay: Akt (Ser473) phosphorylation in differentiated SH-SY5Y cells (antibody array, western blot, Phosflow). The class given is cell-based, human. As to the method:
SH-SY5Y cells were obtained from ATCC (Cat# CRL-2266, Manassas, Va.) and were cultured in DMEM and 10% FBS up to passage 10. For differentiation of SH-SY5Y cells into a neuronal phenotype, cells were first plated in DMEEM+10% FBS for 24 hrs before exchanging media in DMEM+1% FBS 10 μM retinoic acid. Differentiation was performed for 3 days before experimentation. Hippocampal neurons were prepared according to the protocol by Beaudoin et al. (Nature Protocols 2012; 7(9):1741-1754) with minor modifications. In brief, after trypsin digestion of hippocampi isolated from P1 mouse pups single cell suspensions was created by trituration and plated onto Biocoat™ poly-D-lysine coated 12-well plates (Cat#354470, BD Biosciences, San Jose, Calif.). 2 pups were used per well and cell suspensions were incubated for 10 minutes per well for a total of 6 wells. The serial incubation allowed for variation in cell densities applicable to different experiments but also contributed to the reduction in non-neuronal cells. Typically wells 1-2 were pooled for western blotting and wells 4-5 were used for imaging following treatments. After the initial plating cells were incubated for 2 hrs before media was completely exchanged for maintenance media that was supplemented with 1 μM of the anti-mitotic cytosine arabinoside in order to further reduce non-neuronal cells. For western blot, cells were cultured for 7 days before experimentation. Half of maintenance media was exchanged on day 2 and day 5. For morphology experiments, treatments were initiated upon the introduction of maintenance media and was renewed 48 hrs later for a further 24 hrs of treatment. Experiments were terminated by fixation for 20 minutes with 4% paraformaldehyde after which cells were stored at 4° C. in PBS prior to staining protocols.
Pathscan Antibody™ array kits were purchased from Cell Signaling Technologies (Danvers, Mass.). PathScan® RTK signaling antibody array kit (Fluorescent Readout, Cat#7949) and PathScan™ Akt signaling antibody array kit (Fluorescent Readout, Cat#9700) were performed as per manufacturer's instructions. Imaging was performed on a LI-COR Odyssey™ infrared scanner and pixel densities measured by in house LI-COR Image™ suite software.
After experimentation, SH-SY5Y cells were detached from culture ware via trypsin digestion and rapidly mixed with an equal volume of BD cytofix fixation buffer (Cat#554655. BD Biosciences, San Jose, Calif.). After wash steps with PBS cells were permeabilized with BD phosflow Perm Buffer III (Cat#558050. BD Biosciences, San Jose, Calif.) and incubated on ice for 30 mins. After washing in BD stain buffer (Cat#554657. BD Biosciences, San Jose, Calif.) cells were counted and 1×10^6 cells were used antibody incubation. Negative IgG compensation control was obtained using ABC control beads (Cat# A10344. Life Technologies, Grand Island, N.Y.). Antibody incubations were conducted for 30 mins at RT in the dark. Following wash steps the volume was adjusted to 500 μl and results obtained using and LSR II flow cytometer and analyzed using Flowjo™ cytometric analytical software version 8.8.7.
Cell lysates for western blotting were prepared with RIPA buffer (Cat#89900. Thermofisher Scientific, Rockford, Ill.) supplemented with phosphatase inhibitor cocktail 2 (Cat# P5726. Sigma, St Louis, Mo.), phosphatase inhibitor cocktail 3 (Cat# P0044. Sigma, St Louis, Mo.) and complete protease inhibitor (Cat#1862209. Thermofisher Scientific, Rockford, Ill.). Complete homogenization was ensured by brief sonication using a Branson Sonifier 150, (Branson Ultrasonics Corporation, Danbury, Conn.). Protein content was quantified with a Pierce BCA protein assay kit per manufacturer's instructions (Cat#23225. Thermofisher Scientific, Rockford, Ill.).
Lysates was analyzed in conjuncture with the LI-COR Odyssey™ infra-red imaging system. […]
(In general: A western blot detects proteins with antibodies after separation by electrophoresis.)

The source of these data is US20150359847A1, “METHOD AND COMPOSITION FOR CONFERRING NEUROPROTECTION” (BLOOD SYSTEMS RESEARCH INSTITUTE, priority 2014, published 2015).

MMP-9, sequence (P14780 94-707, species assumed): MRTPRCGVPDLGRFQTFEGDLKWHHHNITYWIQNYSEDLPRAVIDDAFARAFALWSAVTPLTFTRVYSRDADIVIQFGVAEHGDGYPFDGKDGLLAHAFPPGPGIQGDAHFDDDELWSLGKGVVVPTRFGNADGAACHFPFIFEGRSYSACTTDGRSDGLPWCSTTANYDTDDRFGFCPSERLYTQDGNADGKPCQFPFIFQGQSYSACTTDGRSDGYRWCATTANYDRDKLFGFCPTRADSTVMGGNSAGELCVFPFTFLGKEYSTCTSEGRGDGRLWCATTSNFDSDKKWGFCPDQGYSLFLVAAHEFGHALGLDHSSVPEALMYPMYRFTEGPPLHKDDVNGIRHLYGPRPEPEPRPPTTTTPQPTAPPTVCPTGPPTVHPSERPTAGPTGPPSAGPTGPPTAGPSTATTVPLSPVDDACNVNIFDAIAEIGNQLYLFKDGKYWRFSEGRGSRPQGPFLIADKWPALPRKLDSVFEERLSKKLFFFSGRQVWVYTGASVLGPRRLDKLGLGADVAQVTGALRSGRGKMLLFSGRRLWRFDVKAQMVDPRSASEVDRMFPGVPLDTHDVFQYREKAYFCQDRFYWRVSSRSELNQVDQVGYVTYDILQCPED

B1: TIMP3: Recombinant tissue inhibitor of matrix metalloproteinase-3, a soluble protein released by MSCs, obtained from Amgen Inc. (protein)
chain: CTCSPSHPQDAFCNSDIVIRAKVVGKKLVKEGPFGTLVYTIKQMKMYRGFTKMPHVQYIHTEASESLCGLKLEVNKYQYLLTGRVYDGKMYTGLCNFVERWDQLTLSQRKGLNYRYHLGCNCKIKSCYYLPCFVTSKNECLWTDMLSNFGYPGYQSKHYACIRQKGGYCSWYRGWAPPDKSIINATDP
Take B1: in the assay with MMP-9, the “MMP-9 inhibition (Sensolyte FRET assay)” value was “can fully inhibit”. For the same molecule, in assay [1] (1 μg/ml TIMP3, 15 mins), the “p-AKT(Ser473), Phosflow cytometry” value was “activates p-AKT(Ser^473)”; the “p-AKT(Ser473), western blot” value is listed as “activates p-AKT(Ser^473)”; the “phospho-AKT(Ser473), fluorescent antibody signaling array” value is given as “activates phospho-AKT(Ser^473)”. Further, the “p-AKT(Ser473), Phosflow cytometry” value in assay [1] (1 μg/ml TIMP3, 45 minutes) is “activates p-AKT(Ser^473)”.
